Laboratory results reported in publication PMC11510292, “Heterobivalent Dual-Target Peptide for Integrin-αvβ3 and Neuropeptide Y Receptors on Breast Tumor” (Pharmaceuticals, 2024).
Where two headings read alike, the source gives them in different places.

Legend:
[1] = Ex vivo biodistribution and blood clearance in healthy Balb/c mice; conditions: mouse, 37 MBq, total radioactivity; for tissue uptake at 4 h: 4 h after IV injection; for tissue uptake at 6 h: 6 h after IV injection; for tissue uptake at 5 min: 5 min after IV injection; for tissue uptake at 0.5 h: 30 min after IV injection; for tissue uptake at 1 h: 1 h after IV injection; for tissue uptake at 2 h: 2 h after IV injection
Description: The ex vivo biodistribution analysis performed with healthy Balb/c mice is presented in Figure 2 and Figure 3, and Table 1. Values are expressed as a percentage of injected activity per gram (%IA/g) of tissue and per milliliter (%IA/mL) of blood.
(§1) […] Animals were deeply anesthetized and euthanized at the corresponding biodistribution time point. Blood, brain, spleen, heart, stomach, liver, lungs, kidneys, pancreas, muscle, bone, small intestine, and large intestine were collected and weighed. The radioactivity of each organ/tissue was then determined using the above-mentioned automatic gamma counter. The radioactivity was evaluated as the percentage of injected activity per gram of organ/tissue (%IA/g), using the same injected dose activity as a standard. Receptor-blocking studies in tumor models were also carried out by co-administration of 100 μg of cold-conjugated peptide along with radiopeptide.

[2] = Biodistribution in SCID mice bearing MCF-7 xenografts; assay type: in vivo; conditions: female, mouse, total radioactivity; for tissue uptake at 1 h / tissue uptake per volume at 1 h: SCID, MCF-7 model, 60 min p.i., 0.1 mL/18.5 MBq IV; for tissue uptake per volume at 1 h: whole blood
Description: To evaluate the uptake of the radiolabeled peptide by breast tumors, additional biodistribution studies were performed in SCID mice bearing MCF-7 and MDA-MB-231 xenografts (Table 2). […] The tumor uptakes of the radiolabeled conjugate were 9.30 ± 3.25% for MCF-7 and 4.93 ± 1.01% for MDA-MB-231 (Figure 5). The tumor-to-muscle ratios were 5.65 ± 0.94 for the MCF-7 model and 7.78 ± 3.20 for the MDA-MB-231 model (Figure 6).
The animals used in this experiment were provided by the Nuclear and Energy Research Institute (IPEN/CNEN-SP) vivarium. Every effort was made to minimize animal suffering per International Ethical Guidelines. The experimental protocols used in this study were approved by the Scientific Ethics Committee of the IPEN/CNEN-SP. Adult female SCID mice were maintained under controlled environmental conditions (12 h light-dark cycle; constant temperature 21 ± 2 °C), with free access to water and food. Suspensions of cells (5 × 10^6 in 0.1 mL) were subcutaneously injected into the upper back regions of the mice.
as §1

[3] = lung, mean ± SD n = 5, read-out: Lung uptake
[4] = muscle, mean ± SD n = 5, read-out: Muscle uptake
[5] = pancreas, mean ± SD n = 5, read-out: Pancreas uptake
[6] = spleen, mean ± SD n = 5, read-out: Spleen uptake
[7] = stomach, mean ± SD n = 5, read-out: Stomach uptake

SMILES: CCCC[C@H](NC(=O)[C@H](CCCNC(=N)N)NC(=O)[C@H](Cc1c[nH]c2ccccc12)NC(=O)[C@H](CSCC(=O)NCCCC[C@@H]1NC(=O)[C@@H](Cc2ccccc2)NC(=O)[C@H](CC(=O)O)NC(=O)CNC(=O)[C@H](CCCNC(=N)N)NC1=O)NC(=O)[C@@H]1CCCN1C(=O)[C@H](CC(N)=O)NC(=O)[C@@H](NC(=O)COCCOCCNC(=O)c1ccc(NN)nc1)[C@@H](C)CC)C(=O)N[C@@H](CCCNC(=N)N)C(=O)N[C@@H](Cc1ccc(O)cc1)C(N)=O [[^99mTc]HYNIC-cRGDfk-NPY, metal not drawn]
- tissue uptake at 4 h [1, 3]: 0.63 ± 0.17 %ID/g
- tissue uptake at 6 h [1, 3]: 1.65 ± 2.02 %ID/g
- tissue uptake at 5 min [1, 4]: 2.16 ± 0.62 %ID/g
- tissue uptake at 0.5 h [1, 4]: 1.5 ± 0.41 %ID/g
- tissue uptake at 1 h [1, 4]: 0.68 ± 0.33 %ID/g
- tissue uptake at 2 h [1, 4]: 0.39 ± 0.09 %ID/g
- tissue uptake at 4 h [1, 4]: 0.22 ± 0.07 %ID/g
- tissue uptake at 6 h [1, 4]: 0.21 ± 0.03 %ID/g
- tissue uptake at 5 min [1, 5]: 3.39 ± 0.92 %ID/g
- tissue uptake at 0.5 h [1, 5]: 2.52 ± 0.89 %ID/g
- tissue uptake at 1 h [1, 5]: 1.17 ± 0.45 %ID/g
- tissue uptake at 2 h [1, 5]: 0.53 ± 0.1 %ID/g
- tissue uptake at 4 h [1, 5]: 0.35 ± 0.12 %ID/g
- tissue uptake at 6 h [1, 5]: 0.34 ± 0.11 %ID/g
- tissue uptake at 5 min [1, 6]: 6.06 ± 2.9 %ID/g
- tissue uptake at 0.5 h [1, 6]: 6.14 ± 2.29 %ID/g
- tissue uptake at 1 h [1, 6]: 3.41 ± 1.17 %ID/g
- tissue uptake at 2 h [1, 6]: 2.22 ± 0.37 %ID/g
- tissue uptake at 4 h [1, 6]: 1.69 ± 0.34 %ID/g
- tissue uptake at 6 h [1, 6]: 1.98 ± 0.63 %ID/g
- tissue uptake at 5 min [1, 7]: 8.05 ± 2.56 %ID/g
- tissue uptake at 0.5 h [1, 7]: 7.17 ± 1.38 %ID/g
- tissue uptake at 1 h [1, 7]: 3.97 ± 0.78 %ID/g
- tissue uptake at 2 h [1, 7]: 2.62 ± 0.68 %ID/g
- tissue uptake at 4 h [1, 7]: 1.81 ± 0.5 %ID/g
- tissue uptake at 6 h [1, 7]: 1.79 ± 0.58 %ID/g
- tissue uptake at 1 h ([2]; bone, Block with excess cold peptide, n = 3, read-out: Bone uptake): 1.08 ± 0.77 %ID/g
- tissue uptake at 1 h ([2]; bone, Non-Block, n = 5, read-out: Bone uptake): 1.4 ± 0.72 %ID/g
- tissue uptake at 1 h ([2]; brain, Block with excess cold peptide, n = 3, read-out: Brain uptake): 0.08 ± 0.01 %ID/g
- tissue uptake at 1 h ([2]; brain, Non-Block, n = 5, read-out: Brain uptake): 0.16 ± 0.06 %ID/g
- tissue uptake at 1 h ([2]; heart, Block with excess cold peptide, n = 3, read-out: Heart uptake): 0.65 ± 0.24 %ID/g
- tissue uptake at 1 h ([2]; heart, Non-Block, n = 5, read-out: Heart uptake): 1.53 ± 0.45 %ID/g
- tissue uptake at 1 h ([2]; kidneys, Block with excess cold peptide, n = 3, read-out: Kidneys uptake): 20.8 ± 7.02 %ID/g
- tissue uptake at 1 h ([2]; kidneys, Non-Block, n = 5, read-out: Kidneys uptake): 24.6 ± 8.6 %ID/g
- tissue uptake at 1 h ([2]; large intestine, Block with excess cold peptide, n = 3, read-out: Large Intestine uptake): 3.91 ± 2.11 %ID/g
- tissue uptake at 1 h ([2]; large intestine, Non-Block, n = 5, read-out: Large Intestine uptake): 6.41 ± 1.63 %ID/g
- tissue uptake at 1 h ([2]; liver, Block with excess cold peptide, n = 3, read-out: Liver uptake): 1.84 ± 0.13 %ID/g
- tissue uptake at 1 h ([2]; liver, Non-Block, n = 5, read-out: Liver uptake): 3.61 ± 0.73 %ID/g
- tissue uptake at 1 h ([2]; lungs, Block with excess cold peptide, n = 3, read-out: Lungs uptake): 1.59 ± 0.34 %ID/g
- tissue uptake at 1 h ([2]; lungs, Non-Block, n = 5, read-out: Lungs uptake): 3.58 ± 1.22 %ID/g
- tissue uptake at 1 h ([2]; muscle, Block with excess cold peptide, n = 3, read-out: Muscle uptake): 0.59 ± 0.37 %ID/g
- tissue uptake at 1 h ([2]; muscle, Non-Block, n = 5, read-out: Muscle uptake): 1.56 ± 1.41 %ID/g
- tissue uptake at 1 h ([2]; pancreas, Block with excess cold peptide, n = 3, read-out: Pancreas uptake): 1.12 ± 0.42 %ID/g
- tissue uptake at 1 h ([2]; pancreas, Non-Block, n = 5, read-out: Pancreas uptake): 1.62 ± 0.3 %ID/g
- tissue uptake at 1 h ([2]; small intestine, Block with excess cold peptide, n = 3, read-out: Small Intestine uptake): 3.77 ± 0.95 %ID/g
- tissue uptake at 1 h ([2]; small intestine, Non-Block, n = 5, read-out: Small Intestine uptake): 10.3 ± 2.18 %ID/g
- tissue uptake at 1 h ([2]; spleen, Block with excess cold peptide, n = 3, read-out: Spleen uptake): 2.53 ± 0.74 %ID/g
- tissue uptake at 1 h ([2]; spleen, Non-Block, n = 5, read-out: Spleen uptake): 5.33 ± 1.88 %ID/g
- tissue uptake at 1 h ([2]; stomach, Block with excess cold peptide, n = 3, read-out: Stomach uptake): 2.98 ± 0.57 %ID/g
- tissue uptake at 1 h ([2]; stomach, Non-Block, n = 5, read-out: Stomach uptake): 6.04 ± 1.15 %ID/g
- tissue uptake at 1 h ([2]; tumor, Block with excess cold peptide, n = 3, p > 0.05 vs non-block, read-out: Tumor uptake): 4.41 ± 2.13 %ID/g
- tissue uptake at 1 h ([2]; tumor, Non-Block, n = 5, read-out: Tumor uptake): 9.3 ± 3.25 %ID/g
- tissue uptake per volume at 1 h ([2]; Block with excess cold peptide, n = 3): 0.92 ± 0.07 %ID/mL
- tissue uptake per volume at 1 h ([2]; Non-Block, n = 5): 1.66 ± 0.89 %ID/mL
- tissue to tissue ratio at 1 h ([2]; tumor and muscle, 37 MBq, MCF-7 tumor-bearing SCID mice, 1 h after IV injection, n = 5): 5.65 ± 0.94
